Data published in patent US20140050719A1 (GlaxoSmithKline, published 2014).

Target: T1, human Aβ peptide (1-40) biotinylated at the C terminus (human, UniProt P05067 672-711, biotinylated at the C terminus)
T1 construct: domain: beta-amyloid peptide (1-40); the peptide starts at the BACE-1 cleavage site (DAEFRHD...); also called beta-amyloid 1-40 peptide (biotinylated at the C-terminus); streptavidin-captured beta-amyloid (1-40)
Test: Biacore SPR, similar to Method A(i); streptavidin-captured beta-amyloid (1-40), Fab in solution

T1 sequence (P05067 672-711 limits assumed): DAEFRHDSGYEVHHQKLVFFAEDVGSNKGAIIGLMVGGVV

Kd: ~2.4 nM
B1: Fab fragments of H2L1, obtained by papain digestion (Fab, V domains shown)
VH: EVQLVESGGGLVQPGGSLRLSCAVSGFTFSDNGMAWVRQAPGKGLEWVSFISNLAYSIDYADTVTGRFTISRDNAKNSLYLQMNSLRAEDTAVYYCVSGTWFAYWGQGTLVTVSS
VL: DIVMTQSPLSLPVTPGEPASISCRVSQSLLHSNGYTYLHWYLQKPGQSPQLLIYKVSNRFSGVPDRFSGSGSGTDFTLKISRVEAEDVGVYYCSQTRHVPYTFGGGTKVEIKR
notes: also called H2L1 Fab
